Experimental data taken from patent publication US20090325290A1 (published 2009).

Tests used:
[1] = biological target: T1, human apotransferrin (human, UniProt P02787 20-698); experiment: ELISA, antigen coated at 10 µg/well
T1 construct: negative control protein
Procedure: (§1) After washing in PBS the anti-human IgG F(ab)₂-peroxidase-conjugate at a 1:10,000 dilution in TBS (supplemented with 5% w/v non-fat dry-milk/0.05% v/v Tween 20) was added to each well for 1 h. Final washes were carried out in PBS followed the addition the substrate POD (Roche). Color-development was read at 370 nm in an ELISA-Reader.

[2] = biological target: human-mouse chimeric molecule DR-IE (human; mouse); experiment: cell-based or functional assay
[3] = biological target: T2, human MHC class II DR protein (DRA*0101/DRB1*0401), purified from PRIESS cells (human, UniProt P01903 26-254; P01911 30-266, limits assumed); experiment: SPR (BIAcore), scFv, chip density 500RU MHCII
T2 construct: mature; 'mature' is my reading; also called HLA-DR protein; MHCII
T2 MHC II alpha: not shown
T2 MHC II beta: not shown

[4] = biological target: T3, HLA-DR (DRA*0101/DRB1*0401) on the surface of PRIESS cells (human, UniProt P01903 26-254; P01911 30-266); experiment: cell-based or functional assay
T3 MHC II alpha: not shown
T3 MHC II beta: not shown

[5] = biological target: T4, bovine serum albumine (bovine, UniProt P02769 25-607); experiment: ELISA, antigen coated at 10 µg/well
T4 construct: negative control protein; also called BSA
T4 sequence (P02769 25-607 limits assumed): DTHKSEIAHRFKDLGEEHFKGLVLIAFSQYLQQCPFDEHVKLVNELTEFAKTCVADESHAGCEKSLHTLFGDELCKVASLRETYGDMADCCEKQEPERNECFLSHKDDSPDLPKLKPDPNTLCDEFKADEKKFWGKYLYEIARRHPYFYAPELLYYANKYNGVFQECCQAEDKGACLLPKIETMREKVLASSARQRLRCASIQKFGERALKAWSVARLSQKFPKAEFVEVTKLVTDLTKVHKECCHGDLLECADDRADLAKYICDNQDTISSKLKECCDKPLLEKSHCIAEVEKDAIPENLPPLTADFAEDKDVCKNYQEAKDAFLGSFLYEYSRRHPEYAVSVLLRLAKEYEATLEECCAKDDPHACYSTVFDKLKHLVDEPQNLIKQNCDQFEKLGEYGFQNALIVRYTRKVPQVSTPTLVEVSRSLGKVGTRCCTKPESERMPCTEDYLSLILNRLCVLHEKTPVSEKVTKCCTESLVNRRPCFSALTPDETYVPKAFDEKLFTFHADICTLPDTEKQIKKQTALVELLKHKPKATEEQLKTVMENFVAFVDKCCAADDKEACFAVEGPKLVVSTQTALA
Procedure: as §1

T1 sequence (P02787 20-698): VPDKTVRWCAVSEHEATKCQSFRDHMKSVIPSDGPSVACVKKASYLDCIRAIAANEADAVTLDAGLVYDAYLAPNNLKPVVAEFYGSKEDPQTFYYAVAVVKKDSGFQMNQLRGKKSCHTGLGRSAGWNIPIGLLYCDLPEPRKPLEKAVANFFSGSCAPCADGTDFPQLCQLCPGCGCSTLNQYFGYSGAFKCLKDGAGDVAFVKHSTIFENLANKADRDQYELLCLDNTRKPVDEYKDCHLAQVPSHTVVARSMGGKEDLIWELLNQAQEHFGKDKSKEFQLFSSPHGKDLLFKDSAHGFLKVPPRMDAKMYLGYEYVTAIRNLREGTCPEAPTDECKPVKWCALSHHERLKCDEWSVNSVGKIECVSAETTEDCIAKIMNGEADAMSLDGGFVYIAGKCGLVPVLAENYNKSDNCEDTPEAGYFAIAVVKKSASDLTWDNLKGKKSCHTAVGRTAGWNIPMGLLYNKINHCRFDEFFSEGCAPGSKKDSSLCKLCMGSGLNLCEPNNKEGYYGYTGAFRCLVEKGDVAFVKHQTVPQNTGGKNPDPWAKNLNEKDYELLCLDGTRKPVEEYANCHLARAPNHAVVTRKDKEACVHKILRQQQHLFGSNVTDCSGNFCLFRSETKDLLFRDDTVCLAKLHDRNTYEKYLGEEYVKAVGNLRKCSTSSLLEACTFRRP

Row | Binder | binding result [1] | IC50, inhibition of IL-2 secretion of T-Hyb 1 cells [2] | Maximum inhibition(%) of IL-2 secretion [2] [%] | further results
1 | MS-GPC-8-6-47 (Fab form) (Fab, V domains shown, Fab: VH-CH1-FLAG-STREP tag II) VH: QVQLKESGPALVKPTQTLTLTCTFSGFSLSTSGVGVGWIRQPPGKALEWLALIDWDDDKYYSTSLKTRLTISKDTSKNQVVLTMTNMDPVDTATYYCARSPRYRGAFDYWGQGTLVTVSS VL: DIVLTQPPSVSGAPGQRVTISCSGSESNIGSNYVSWYQQLPGTAPKLLIYDNNQRPSGVPDRFSGSKSGTSASLAITGLQSEDEADYYCQSYDYDHYVFGGGTKLTVLG | no binding (tested: 100 ng/well) | 2.6 nM ((Fab)/2) | 100 | 
2 | MS-GPC-8-6 (IgG form) (antibody, V domains shown) VH: QVQLKESGPALVKPTQTLTLTCTFSGFSLSTSGVGVGWIRQPPGKALEWLALIDWDDDKYYSTSLKTRLTISKDTSKNQVVLTMTNMDPVDTATYYCARSPRYRGAFDYWGQGTLVTVSS VL: DIVLTQPPSVSGAPGQRVTISCSGSSSNIGSNYVSWYQQLPGTAPKLLIYDNNQRPSGVPDRFSGSKSGTSASLAITGLQSEDEADYYCQSYDYDHYVFGGGTKLTVLG |  | 6.7 nM | 100 | 
3 | MS-GPC-8-6-2 (IgG form) (antibody, V domains shown) VH: QVQLKESGPALVKPTQTLTLTCTFSGFSLSTSGVGVGWIRQPPGKALEWLALIDWDDDKYYSTSLKTRLTISKDTSKNQVVLTMTNMDPVDTATYYCARSPRYRGAFDYWGQGTLVTVSS VL: DIVLTQPPSVSGAPGQRVTISCSGSESNIGSNYVHWYQQLPGTAPKLLIYDNNQRPSGVPDRFSGSKSGTSASLAITGLQSEDEADYYCQSYDYDHYVFGGGTKLTVLG |  | 3.6 nM | 100 | 
4 | MS-GPC-1 (scFv form) (scFv, V domains shown) VH: EVQLKESGPALVKPTQTLTLTCTFSGFSLSTSGVGVGWIRQPPGKALEWLALIDWDDDKYYSTSLKTRLTISKDTSKNQVVLTMTNMDPVDTATYYCARQYGHRGGFDHWGQGTLVTVSS VL: DIVLTQPPSVSGAPGQRVTISCSGSSSNIGSNYVSWYQQLPGTAPKLLIYDNNQRPSGVPDRFSGSKSGTSASLAITGLQSEDEADYYCQSYDFNESVFGGGTKLTVLG |  |  |  | Kd [3]: 1500 nM; koff [3]: 0.061 s⁻¹; kon [3]: 41300 M⁻¹ s⁻¹
5 | MS-GPC-8 (Fab form) (Fab, V domains shown, Fab: VH-CH1-FLAG-STREP tag II; also called B8-Fab; B8) VH: QVQLKESGPALVKPTQTLTLTCTFSGFSLSTSGVGVGWIRQPPGKALEWLALIDWDDDKYYSTSLKTRLTISKDTSKNQVVLTMTNMDPVDTATYYCARSPRYRGAFDYWGQGTLVTVSS VL: DIVLTQPPSVSGAPGQRVTISCSGSSSNIGSNYVSWYQQLPGTAPKLLIYDNNQRPSGVPDRFSGSKSGTSASLAITGLQSEDEADYYCQSYDMPQAVFGGGTKLTVLG | no binding (tested: 100 ng/well) | 110 nM ((Fab)/2) | 100 | EC50 of cell killing, as bivalent cross-linked (Fab)dimer [4]: < 60 nM; EC50 of cell killing, cross-linked Fab, as monovalent fragment [4]: < 120 nM; binding result [5]: no binding (tested: 100 ng/well)
6 | MS-GPC-8-6-19 (Fab form) (Fab, V domains shown) VH: QVQLKESGPALVKPTQTLTLTCTFSGFSLSTSGVGVGWIRQPPGKALEWLALIDWDDDKYYSTSLKTRLTISKDTSKNQVVLTMTNMDPVDTATYYCARSPRYRGAFDYWGQGTLVTVSS VL: DIVLTQPPSVSGAPGQRVTISCSGSESNIGSNYVAWYQQLPGTAPKLLIYDNNQRPSGVPDRFSGSKSGTSASLAITGLQSEDEADYYCQSYDYDHYVFGGGTKLTVLG |  | 5.3 nM ((Fab)/2) | 100 | 
7 | MS-GPC-8-27-10 (Fab form) (Fab, V domains shown, Fab: VH-CH1-FLAG-STREP tag II) VH: QVQLKESGPALVKPTQTLTLTCTFSGFSLSTSGVGVGWIRQPPGKALEWLALIDWDDDKYYSTSLKTRLTISKDTSKNQVVLTMTNMDPVDTATYYCARSPRYRGAFDYWGQGTLVTVSS VL: DIVLTQPPSVSGAPGQRVTISCSGSESNIGANYVNWYQQLPGTAPKLLIYDNNQRPSGVPDRFSGSKSGTSASLAITGLQSEDEADYYCQSYDMNVHVFGGGTKLTVLG | no binding (tested: 100 ng/well) | 7.3 nM ((Fab)/2) | 100 | binding result [5]: no binding (tested: 100 ng/well)
8 | MS-GPC-8-6-2 (Fab form) (Fab, V domains shown) VH: QVQLKESGPALVKPTQTLTLTCTFSGFSLSTSGVGVGWIRQPPGKALEWLALIDWDDDKYYSTSLKTRLTISKDTSKNQVVLTMTNMDPVDTATYYCARSPRYRGAFDYWGQGTLVTVSS VL: DIVLTQPPSVSGAPGQRVTISCSGSESNIGSNYVHWYQQLPGTAPKLLIYDNNQRPSGVPDRFSGSKSGTSASLAITGLQSEDEADYYCQSYDYDHYVFGGGTKLTVLG |  | 4.7 nM ((Fab)/2) | 100 | 
9 | MS-GPC-10 (Fab form) (Fab, V domains shown) VH: QVQLKESGPALVKPTQTLTLTCTFSGFSLSTSGVGVGWIRQPPGKALEWLALIDWDDDKYYSTSLKTRLTISKDTSKNQVVLTMTNMDPVDTATYYCARQLHYRGGFDLWGQGTLVTVSS VL: DIVLTQPPSVSGAPGQRVTISCSGSSSNIGSNYVSWYQQLPGTAPKLLIYDNNQRPSGVPDRFSGSKSGTSASLAITGLQSEDEADYYCQSYDLTMGVFGGGTKLTVLG |  |  |  | EC50 of cell killing, as bivalent cross-linked (Fab)dimer [4]: < 60 nM; EC50 of cell killing, cross-linked Fab, as monovalent fragment [4]: < 120 nM
10 | MS-GPC-8-6-27 (Fab form) (Fab, V domains shown, Fab: VH-CH1-FLAG-STREP tag II) VH: QVQLKESGPALVKPTQTLTLTCTFSGFSLSTSGVGVGWIRQPPGKALEWLALIDWDDDKYYSTSLKTRLTISKDTSKNQVVLTMTNMDPVDTATYYCARSPRYRGAFDYWGQGTLVTVSS VL: DIVLTQPPSVSGAPGQRVTISCSGSDSNIGANYVTWYQQLPGTAPKLLIYDNNQRPSGVPDRFSGSKSGTSASLAITGLQSEDEADYYCQSYDYDHYVFGGGTKLTVLG | no binding (tested: 100 ng/well) | 3 nM ((Fab)/2) | 100 | 
11 | MS-GPC-8-27-41 (Fab form) (Fab, V domains shown, Fab: VH-CH1-FLAG-STREP tag II; also called 1D09C3) VH: QVQLKESGPALVKPTQTLTLTCTFSGFSLSTSGVGVGWIRQPPGKALEWLALIDWDDDKYYSTSLKTRLTISKDTSKNQVVLTMTNMDPVDTATYYCARSPRYRGAFDYWGQGTLVTVSS VL: DIVLTQPPSVSGAPGQRVTISCSGSESNIGNNYVQWYQQLPGTAPKLLIYDNNQRPSGVPDRFSGSKSGTSASLAITGLQSEDEADYYCQSYDMNVHVFGGGTKLTVLG | no binding (tested: 100 ng/well) | 3.6 nM ((Fab)/2) | 100 | 
12 | MS-GPC-1 (Fab form) (Fab, V domains shown) VH: QVQLKESGPALVKPTQTLTLTCTFSGFSLSTSGVGVGWIRQPPGKALEWLALIDWDDDKYYSTSLKTRLTISKDTSKNQVVLTMTNMDPVDTATYYCARQYGHRGGFDHWGQGTLVTVSS VL: DIVLTQPPSVSGAPGQRVTISCSGSSSNIGSNYVSWYQQLPGTAPKLLIYDNNQRPSGVPDRFSGSKSGTSASLAITGLQSEDEADYYCQSYDFNESVFGGGTKLTVLG |  |  |  | EC50 of cell killing, as bivalent cross-linked (Fab)dimer [4]: < 60 nM; EC50 of cell killing, cross-linked Fab, as monovalent fragment [4]: < 120 nM
13 | MS-GPC-8-6-13 (Fab form) (Fab, V domains shown, Fab: VH-CH1-FLAG-STREP tag II; also called 305D3) VH: QVQLKESGPALVKPTQTLTLTCTFSGFSLSTSGVGVGWIRQPPGKALEWLALIDWDDDKYYSTSLKTRLTISKDTSKNQVVLTMTNMDPVDTATYYCARSPRYRGAFDYWGQGTLVTVSS VL: DIVLTQPPSVSGAPGQRVTISCSGSESNIGANYVTWYQQLPGTAPKLLIYDNNQRPSGVPDRFSGSKSGTSASLAITGLQSEDEADYYCQSYDYDHYVFGGGTKLTVLG | no binding (tested: 100 ng/well) | 2.1 nM ((Fab)/2) | 100 | 
14 | MS-GPC-8-27-7 (Fab form) (Fab, V domains shown, Fab: VH-CH1-FLAG-STREP tag II) VH: QVQLKESGPALVKPTQTLTLTCTFSGFSLSTSGVGVGWIRQPPGKALEWLALIDWDDDKYYSTSLKTRLTISKDTSKNQVVLTMTNMDPVDTATYYCARSPRYRGAFDYWGQGTLVTVSS VL: DIVLTQPPSVSGAPGQRVTISCSGSESNIGNNYVGWYQQLPGTAPKLLIYDNNQRPSGVPDRFSGSKSGTSASLAITGLQSEDEADYYCQSYDMNVHVFGGGTKLTVLG | no binding (tested: 100 ng/well) | 5.9 nM ((Fab)/2) | 100 | binding result [5]: no binding (tested: 100 ng/well)
